In this assay the target is T1, human CD62P (P-Selectin) on the surface of activated platelets (human, UniProt P16109 42-830).
T1 sequence: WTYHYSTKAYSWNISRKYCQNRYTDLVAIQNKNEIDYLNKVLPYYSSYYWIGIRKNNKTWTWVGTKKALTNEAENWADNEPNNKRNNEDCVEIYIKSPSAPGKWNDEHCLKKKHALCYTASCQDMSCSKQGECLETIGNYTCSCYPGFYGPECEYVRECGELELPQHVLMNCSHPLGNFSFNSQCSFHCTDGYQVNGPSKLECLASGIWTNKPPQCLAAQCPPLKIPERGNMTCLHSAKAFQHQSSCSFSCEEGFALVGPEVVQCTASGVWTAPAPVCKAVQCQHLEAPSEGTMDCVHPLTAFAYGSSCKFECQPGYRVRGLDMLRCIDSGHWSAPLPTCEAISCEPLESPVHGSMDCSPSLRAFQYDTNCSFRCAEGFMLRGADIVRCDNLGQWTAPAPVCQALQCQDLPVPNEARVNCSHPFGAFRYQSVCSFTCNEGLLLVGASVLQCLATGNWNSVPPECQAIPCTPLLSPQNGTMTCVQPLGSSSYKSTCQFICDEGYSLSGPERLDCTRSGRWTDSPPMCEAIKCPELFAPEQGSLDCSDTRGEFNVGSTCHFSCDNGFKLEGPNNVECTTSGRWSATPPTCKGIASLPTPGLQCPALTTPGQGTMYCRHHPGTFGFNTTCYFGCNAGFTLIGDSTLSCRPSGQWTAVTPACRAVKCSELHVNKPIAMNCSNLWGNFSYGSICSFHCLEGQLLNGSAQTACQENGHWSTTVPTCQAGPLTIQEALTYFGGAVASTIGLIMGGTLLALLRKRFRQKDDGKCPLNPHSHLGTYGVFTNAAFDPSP
The assay is described as follows: FACS on activated human platelets; sample incubated without Thrombin.

Consider one molecule from US20130052192A1 (Novo Nordisk, published 2013).

Description: In short, blood from healthy donors was drawn by venipuncture of the antecubital vein. […] Platelet preparations were produced by making a standard Platelet Rich Plasma (PRP). Here, anti-coagulated whole blood was centrifuged (200 g for 15 minutes) without brake. […] Platelets were washed and prepared for staining. […] 50-100,000 cells were used per well.

B1: EP-FpA-PB1.3 mAb construct, incubated without Thrombin (uncleaved) (antibody, human IgG4, V domains shown)
VH: EAQLQQSGPELVEPGASVKVSCKASGYTFTNYVMHWVKQKPGQGLEWIGFINPSNDGPKYNERFKNKATLTSDKSSSTAYMELSSLTSEVSAVYFCARARPGFDWYFDVWGAGTTVTVSS
VL: DIVMTQSQKFMSTSVGDRVSVTCKASQNVATNVVWYQQRPGQSPKALIYTASYRFSGVPERFSGSGSGTDFTLTITNVQSEDLADYFCQQYNNYPYTFGGGTKVEIQR
notes: also called Sample 2
With B1, the binding result is “no binding”.
